Test [1] has as its target Fc-MST-HN (IgG1 Fc fragment with M252Y, S254T, T256E, H433K, N434F) (human). The test can be described thus: crystal structure; Fc-MST-HN with EndoH- and thrombin-treated FcRn:beta2M, complex isolated by preparative SEC; crystals from 0.1 M sodium cacodylate pH 7.0, 293 K.
In test [2] the target is FcRn coupled to the FcRn Affinity Column (Roche) (UniProt P55899). The test is described as follows: FcRn-affinity chromatography; FcRn Affinity Column (Roche); antibody or fragment injected at pH 5.5 (20 mM MES, 150 mM NaCl), pH gradient to pH 8.8 (20 mM Tris-HCl, 150 mM NaCl); elution pH read.
The target of test [3] is anti-HEL IgG1-WT (human). The test can be described thus: SPR; IBIS MX96; IgG or Fc randomly coupled on a SensEye G Easy2Spot array at four spotting concentrations (60, 30, 15, 7.5 nM); monomeric human FcRn injected 0.49-1000 nM in PBS, 0.075% Tween 80, pH 6.0; equilibrium analysis, Langmuir 1:1 model; one KD for each spot (with its RU), later interpolated to Rmax = 700 RU. A general note: In SPR one partner is held on a chip, and binding of the other changes the refractive index at the surface.

The target of test [4] is Fc-WT (human). The test is described as above.
The target in test [5] is anti-HEL IgG1-MST-HN (human). The description is as above.
The target in test [6] is Fc-MST-HN (human). The test is described as above.
Test [7] addresses Fc-MST-HN (human). The test can be described thus: SPR; IBIS MX96; IgG or Fc randomly coupled on a SensEye G Easy2Spot array at four spotting concentrations (60, 30, 15, 7.5 nM); monomeric human FcRn injected 0.49-1000 nM in PBS, 0.075% Tween 80, pH 7.4; equilibrium analysis, Langmuir 1:1 model; one KD for each spot (with its RU), later interpolated to Rmax = 700 RU.
Test [8] deals with recombinant human FcRn (FcRn alpha-chain with C-terminal BirA 10x-Histidine tag, with beta-2-microglobulin) (human) (UniProt P55899). The test is described as follows: SPR; pH 7.4.
The target is the same in test [9]. The test can be described thus: SPR.
Test [10] shares this target. The test can be described thus: SPR; pH 6.0.
In test [11] the target is Fc-MST (human). The test is described as follows: ITC; 37 °C, PEAQ-ITC; as drawn in the figure FcRn:b2M titrated into the Fc (reverse setup: 6 uM in the cell, 165 uM in the syringe); fit A + B + B with 2 symmetric sites, macroscopic K (Sedphat); buffer and pH not stated; four runs for Fc-MST-HN (values averaged), one for Fc-YTE. (In ITC the heat of successive injections is recorded.)

Several values for one entry are separate records, joined by “and”; a condition that tells them apart may be missing. Equal values may be shown once.

Broadly, the stoichiometry N is a count of units in the complex or per binding partner. Take “FcRn:beta2M (FcRn residues 1-297 with beta-2-microglobulin residues 1-119), EndoH-treated, tags removed by thrombin (from UniProt P55899 24-297; P61769 21-119) (complex)”: the stoichiometry N in test [1] is 2 FcRn per Fc.
The substance “anti-HEL IgG1-WT (full-size IgG1) (antibody)” had an elution pH in test [2] of 7 pH.
The same measure, in the same setting: with “Fc-WT (wild-type human IgG1 Fc fragment) (domain or fragment)” the figure was 7 pH.
The term Kd denotes the equilibrium constant for the complex coming apart. In the case of “recombinant human FcRn (FcRn α-chain with ß2-microglobulin) (from UniProt P55899 24-297; P61769 21-119) (receptor)”, the Kd in test [3] is 600 nM; in test [4] it was 240 nM and 270 nM; in test [5], 37 nM and 34 nM; in test [6], 37 nM and 34 nM and 32 nM; in test [7] it was 1150 nM and 1040 nM and 830 nM.
For “anti-HEL IgG1-MST-HN (full-size IgG1) (from UniProt P01857)”, the Kd in test [8] is 899 nM; in [9], 39 nM.
Substance “Fc-MST-HN (IgG1 Fc fragment with M252Y, S254T, T256E, H433K, N434F) (domain or fragment)” showed an elution pH in test [2] of 8.7 pH.
As for “anti-biotin IgG1-WT (from UniProt P01857)”, in test [10], the Kd turned out to be 200 nM.
For “anti-HEL IgG1-WT (full-size IgG1) (from UniProt P01857)”, in test [9], the Kd came to 381 nM.
As to “FcRn:ß2M (recombinant extracellular domain of human FcRn in complex with beta-2-microglobulin, as used for ITC) (from UniProt P55899 24-297; P61769 21-119) (receptor)”, the Kd in test [11] came out at 66.2 nM.
Turning to “anti-HEL IgG1-MST-HN (full-size IgG1) (antibody)”, in [2], the elution pH came out at 8.7 pH.

Source of the values: publication PMC9568614.
